Results reported in the Immune Epitope Database (IEDB).
Blank lines part the entries; values can stand above or below the sequence they belong to.

Experiments:
Test in all cases: IEDB peptide-MHC binding, purified MHC/competitive/radioactivity; filed as Kd, often an IC50 or EC50 that approximates it; ≥ and ≤ were set here for values at or beyond the usual limits of such assays
[1] = target: HLA-A*11:01
[2] = target: HLA-A*31:01
[3] = target: HLA-A*03:01
[4] = target: HLA-A*68:01
[5] = target: HLA-A*33:01
[6] = source organism: Dengue virus 4 Philippines/H241/1956
[7] = source organism: Vaccinia virus WR
[8] = source organism: Dengue virus 3 Martinique/1243/1999
[9] = source organism: Dengue virus 2 Jamaica/1409/1983
[10] = source organism: SARS coronavirus Tor2
[11] = source organism: Mammarenavirus machupoense
[12] = source organism: Dengue virus 1 Brazil/97-11/1997
[13] = source organism: Mammarenavirus juninense
[14] = source organism: Lassa virus Josiah

Sequence: MVEPWLSSK
- Kd [1, 6]: 648 nM

Sequence: VSKHWELTNK
- Kd [2, 7]: 1780 nM
- Kd [3, 7]: 680 nM
- Kd [4, 7]: 1520 nM
- Kd [1, 7]: 157 nM
- Kd [5, 7]: 11900 nM

Sequence: KLIHEWCCR
- Kd [2, 8]: 39.6 nM

Sequence: KAIITPVVFY
- Kd [2, 7]: ≥ 70000 nM
- Kd [3, 7]: 7470 nM
- Kd [4, 7]: 6700 nM
- Kd [1, 7]: 900 nM
- Kd [5, 7]: ≥ 70000 nM

Sequence: NMSFRDLGR
- Kd [5, 9]: 8.95 nM

Sequence: MSSSVDVDIY
- Kd [2, 7]: ≥ 70000 nM
- Kd [3, 7]: ≥ 25900 nM
- Kd [4, 7]: 250 nM
- Kd [1, 7]: 12500 nM
- Kd [5, 7]: ≥ 29700 nM

Sequence: ASLPYGANK
- Kd [2, 10]: 514 nM
- Kd [3, 10]: 177 nM
- Kd [4, 10]: 16500 nM
- Kd [1, 10]: 111 nM
- Kd [5, 10]: ≥ 52200 nM

Sequence: TCNDHYLCLR
- Kd [2, 11]: 123 nM
- Kd [3, 11]: ≥ 33300 nM
- Kd [4, 11]: 2210 nM
- Kd [1, 11]: ≥ 61800 nM
- Kd [5, 11]: 718 nM

Sequence: NVYADSFVVK
- Kd [2, 10]: 386 nM
- Kd [3, 10]: 76.5 nM
- Kd [4, 10]: 29.3 nM
- Kd [1, 10]: 101 nM
- Kd [5, 10]: 972 nM

Sequence: SIGNVTRLFY
- Kd [2, 7]: 3050 nM
- Kd [3, 7]: 2.94 nM
- Kd [4, 7]: 2050 nM
- Kd [1, 7]: 25 nM
- Kd [5, 7]: 17400 nM

Sequence: EFCVDHPFIY
- Kd [2, 7]: ≥ 37600 nM
- Kd [3, 7]: ≥ 70100 nM
- Kd [4, 7]: ≥ 54700 nM
- Kd [1, 7]: 11000 nM
- Kd [5, 7]: ≥ 44400 nM

Sequence: PSRSKMLKR
- Kd [2, 7]: 1890 nM
- Kd [3, 7]: 16.4 nM
- Kd [4, 7]: ≥ 77700 nM
- Kd [1, 7]: 5560 nM
- Kd [5, 7]: ≥ 51600 nM

Sequence: SMGFKVTTR
- Kd [2, 7]: 1.94 nM
- Kd [3, 7]: 5010 nM
- Kd [4, 7]: 1270 nM
- Kd [1, 7]: 4730 nM
- Kd [5, 7]: 166 nM

Sequence: SMTYLYNKY
- Kd [2, 7]: ≥ 25000 nM
- Kd [3, 7]: 9930 nM
- Kd [4, 7]: 1750 nM
- Kd [1, 7]: 1660 nM
- Kd [5, 7]: 8750 nM

Sequence: YMPSMKRFRR
- Kd [2, 9]: 10.2 nM
- Kd [4, 9]: 1110 nM
- Kd [5, 9]: 10.7 nM

Sequence: AGLAFSIMK
- Kd [1, 8]: 13.8 nM

Sequence: VFIHMVRCCK
- Kd [2, 7]: 43.9 nM
- Kd [3, 7]: ≥ 20900 nM
- Kd [4, 7]: ≥ 24500 nM
- Kd [1, 7]: 4820 nM
- Kd [5, 7]: 212 nM

Sequence: STSQETWNR
- Kd [4, 12]: 68.8 nM

Sequence: ETLGEKWKR
- Kd [4, 12]: 69.2 nM
- Kd [5, 12]: 13.4 nM

Sequence: AMRCVGIGNR
- Kd [2, 12]: 872 nM

Sequence: IVFVCVEYY
- Kd [2, 10]: 112 nM
- Kd [3, 10]: 49.7 nM
- Kd [4, 10]: 23 nM
- Kd [1, 10]: 41 nM
- Kd [5, 10]: 844 nM

Sequence: SWPVQCPLDH
- Kd [2, 13]: 9.74 nM
- Kd [3, 13]: ≥ 70000 nM
- Kd [4, 13]: ≥ 70100 nM
- Kd [1, 13]: ≥ 69700 nM
- Kd [5, 13]: 19400 nM

Sequence: VLAYMLFTK
- Kd [2, 10]: 223 nM
- Kd [3, 10]: 0.179 nM
- Kd [4, 10]: 7.96 nM
- Kd [1, 10]: 0.894 nM
- Kd [5, 10]: 1890 nM

Sequence: FMTLVPVLEK
- Kd [2, 7]: 73.3 nM
- Kd [3, 7]: 82.6 nM
- Kd [4, 7]: 2 nM
- Kd [1, 7]: 3.96 nM
- Kd [5, 7]: 20 nM

Sequence: KVKYLYFIK
- Kd [2, 10]: 0.138 nM
- Kd [3, 10]: 113 nM
- Kd [4, 10]: 968 nM
- Kd [1, 10]: 49.1 nM
- Kd [5, 10]: 9300 nM

Sequence: VTFKVPHAK
- Kd [3, 6]: 10.2 nM
- Kd [4, 6]: 177 nM
- Kd [1, 6]: 53.2 nM

Sequence: RILQRGLLGR
- Kd [2, 12]: ≥ 70000 nM
- Kd [3, 12]: 16.4 nM

Sequence: KFQADSPKR
- Kd [2, 12]: 39.9 nM

Sequence: YFVCWHTHNY
- Kd [2, 10]: 2330 nM
- Kd [3, 10]: 1520 nM
- Kd [4, 10]: 4860 nM
- Kd [1, 10]: 8120 nM
- Kd [5, 10]: 1820 nM

Sequence: ALAYYNNSK
- Kd [2, 10]: 7570 nM
- Kd [3, 10]: 44.5 nM
- Kd [4, 10]: 832 nM
- Kd [1, 10]: 29 nM
- Kd [5, 10]: ≥ 45900 nM

Sequence: YSFKLILAEY
- Kd [2, 7]: 658 nM
- Kd [3, 7]: 8180 nM
- Kd [4, 7]: 3670 nM
- Kd [1, 7]: 7290 nM
- Kd [5, 7]: 7960 nM

Sequence: TLLSLTFIK
- Kd [3, 12]: 1.36 nM
- Kd [1, 12]: 12.3 nM

Sequence: IMDLHPGSGK
- Kd [3, 12]: 60.1 nM

Sequence: LSKDKMDSFK
- Kd [2, 7]: 27.8 nM
- Kd [3, 7]: 25.1 nM
- Kd [4, 7]: 1.46 nM
- Kd [1, 7]: 15 nM
- Kd [5, 7]: 304 nM

Sequence: ISQGAGWSLR
- Kd [2, 8]: 8.62 nM

Sequence: AIVCRFDTR
- Kd [2, 10]: 133 nM
- Kd [3, 10]: 4170 nM
- Kd [4, 10]: 563 nM
- Kd [1, 10]: 1210 nM
- Kd [5, 10]: 329 nM

Sequence: TCQGSDDIR
- Kd [2, 14]: ≥ 22300 nM
- Kd [3, 14]: ≥ 78000 nM
- Kd [4, 14]: 14500 nM
- Kd [1, 14]: ≥ 77900 nM
- Kd [5, 14]: 12100 nM

Sequence: TFKVPHAKR
- Kd [2, 6]: 1.2 nM
- Kd [5, 6]: 15.8 nM

Sequence: QIDRLEDLSK
- Kd [2, 7]: 6790 nM
- Kd [3, 7]: 1450 nM
- Kd [4, 7]: 2310 nM
- Kd [1, 7]: 255 nM
- Kd [5, 7]: 14700 nM

Sequence: CFPSTQRDY
- Kd [2, 7]: 9810 nM
- Kd [3, 7]: 868 nM
- Kd [4, 7]: ≥ 58400 nM
- Kd [1, 7]: 2510 nM
- Kd [5, 7]: ≥ 77700 nM

Sequence: QQQGQTVTK
- Kd [2, 10]: 3030 nM
- Kd [3, 10]: 16600 nM
- Kd [4, 10]: ≥ 50500 nM
- Kd [1, 10]: 476 nM
- Kd [5, 10]: ≥ 30400 nM

- Kd ([1]; source organism: Homo sapiens): 11 nM
Sequence: ETLTSVFQK

Sequence: PSVNEYHMLK
- Kd [2, 7]: 408 nM
- Kd [3, 7]: 10.2 nM
- Kd [4, 7]: 469 nM
- Kd [1, 7]: 13.7 nM
- Kd [5, 7]: 11600 nM

Sequence: RTYSDPLALR
- Kd [2, 12]: ≥ 70000 nM
- Kd [4, 12]: 18.8 nM
- Kd [1, 12]: 92.1 nM

Sequence: TTVITPMMR
- Kd [4, 12]: 34.6 nM
